Experiments:
[1] = post-production stability of the 68Ga-labeled product at room temperature (UV-Radio-HPLC); type: physicochemical; conditions: ambient temperature, for at least 2 h, with addition of ascorbic acid
Source text: The ^68Ga-labeling procedure was optimized in terms of the radiochemical yield and required optimization of such factors as temperature, heating time, radical scavenger content, buffer concentration, pH, and product purification mean. The labeling was reproducible with a high non-decay corrected radiochemical yield of 61.1 ± 2.9% and a molar activity of 59.8 ± 4.4 MBq/nmol at the end of the synthesis (Figure 2). The radioactivity at the end of the synthesis was 424 ± 29 MBq with a radiochemical purity of 94.5 ± 0.3% (for the chromatogram, see Supplementary Materials, Figure S1). […]
The ^68Ge/^68Ga generator (pharmaceutical grade, GalliaPharm®, Eckert & Ziegler, Berlin, Germany) eluate was fractionated, and the top fraction of 3.5 mL containing approximately 90% of the radioactivity was collected for the radiolabeling. […] The radiochemical purity and the peptide concentration in the product were determined by high-pressure liquid chromatography (HPLC). […] The stability of the product at room temperature was monitored for 2 h and assessed by UV-Radio-HPLC. […] The total radioactivity of the product was then measured in an ionization chamber. The radioactivity recovery from the analytical column was controlled by performing an analysis of the product, generator eluate, and the product spiked with the generator eluate with and without column. […]

[2] = ex vivo organ distribution in Sprague Dawley rats; conditions: rat, i.v.
Protocol: The in vivo organ distribution of [^68Ga]Ga-C803-GIP was assessed in Sprague Dawley rats (324 ± 36 g, male, n = 16). The radiotracer was administered into the tail vein of unsedated animals as a bolus in 0.5–0.6 mL of PBS as the vehicle. The animals received 4.1 ± 2.2 MBq/kg ^68Ga]Ga-C803-GIP corresponding to 2.4 ± 1.3 µg/kg peptide mass.
The in vivo organ distribution was conducted for 5 to 180 min, euthanizing two animals at each of eight time points (5, 10, 20, 40, 60, 90, 120, or 180 min). Samples of blood, heart, lung, liver, pancreas, spleen, adrenal, kidney, small intestine (without/with its content), large intestine (without its content), feces, urinary bladder (rinsed), testis, muscle, bone, bone marrow, thyroid, and brain were immediately harvested, weighed, and measured for radioactivity (gamma counter). The organ uptake of [^68Ga]Ga-C803-GIP was corrected for radioactivity decay to the time point of administration and expressed as standardized uptake values (SUVs, Equation (1)). (1) SUV (1/1)=Radioactivitytissue (Bq)/Weighttissue(g)/Radioactivityinjected (Bq)/Weightbody(g)
The competition experiments were designed and guided by the results of the organ distribution study. Based on the observed rapid clearance of [^68Ga]Ga-C803-GIP from the pancreas (known to contain the GIPR), 20 min post-administration was the time point selected for the blocking studies. The rats (351 ± 23 g, male, n = 8) were administered [^68Ga]Ga-C803-GIP (18.4 ± 3.7 MBq/kg; 10.7 ± 2.2 µg/kg). A high radioactive dose was selected to potentially increase the tissue signal. Half of them (n = 4) received [^68Ga]Ga-C803-GIP alone, while the other half was co-injected with 1 mg/kg of non-labeled C803-GIP. The animals were sacrificed 20 min after the administration of [^68Ga]Ga-C803-GIP, and the tissue uptake of the tracer was analyzed as described above.

Structure (SMILES): CC[C@H](C)[C@H](NC(=O)[C@H](CO)NC(=O)[C@H](Cc1ccc(O)cc1)NC(=O)[C@H](CC(=O)O)NC(=O)[C@H](CO)NC(=O)[C@@H](NC(=O)[C@H](Cc1ccccc1)NC(=O)[C@@H](NC(=O)CNC(=O)[C@H](CCC(=O)O)NC(=O)[C@@H](C)NC(=O)[C@@H](N)Cc1ccc(O)cc1)[C@@H](C)O)[C@@H](C)CC)C(=O)N[C@@H](C)C(=O)N[C@@H](CC(C)C)C(=O)N[C@@H](CC(=O)O)C(=O)N[C@@H](CCCCN)C(=O)N[C@H](C(=O)N[C@@H](Cc1c[nH]cn1)C(=O)N[C@@H](CCC(N)=O)C(=O)N[C@@H](CCC(N)=O)C(=O)N[C@@H](CCC(=O)O)C(=O)N[C@@H](Cc1ccccc1)C(=O)N[C@H](C(=O)N[C@@H](CCC(=O)O)C(=O)N[C@@H](Cc1c[nH]c2ccccc12)C(=O)N[C@@H](CC(C)C)C(=O)N[C@@H](CCCCN)C(=O)N[C@@H](C)C(=O)NCC(=O)NCC(=O)N[C@@H](Cc1c[nH]cn1)C(=O)N1CCC[C@H]1C(=O)N[C@@H](CO)C(=O)NCC(=O)N[C@@H](C)C(=O)N1CCC[C@H]1C(=O)N1CCC[C@H]1C(=O)N1CCC[C@H]1C(=O)N[C@@H](CO)C(=O)N[C@@H](CSCCS(=O)(=O)CCN1CCN(CC(=O)O)CCN(CC(=O)O)CCN(CC(=O)O)CC1)C(N)=O)[C@@H](C)CC)[C@@H](C)CC [[^68Ga]Ga-C803-GIP, metal not drawn]
- radiochemical purity on post-production storage (stability) [1]: over 91%
- SUV at 5 min ([2]; male, Sprague Dawley, liver, iv, total radioactivity, 5 min post-administration, read-out: liver uptake): < 1 SUV
- liver washout with respect to the 5 min time point, within 1 h [2]: 50%
- liver washout with respect to the 5 min time point, within 3 h [2]: 75%
- kidney uptake ([2]; within 3 h): 85.5 ± 1.6 SUV

— article PMC9864903, “Imaging of the Glucose-Dependent Insulinotropic Polypeptide Receptor Using a Novel Radiolabeled Peptide Rationally Designed Based on Endogenous GIP and Synthetic Exendin-4 Sequences” (Pharmaceuticals, 2022)
